# Source: patent US20110158985A1 (published 2011)
# Substitutions are numbered along the chain they refer to. Numbers in names are those of the source. Where “and” joins values, the source holds several entries; their conditions need not be identical. Equal values may be shown once.
# T1: RSV F glycoprotein (NUF4) (respiratory syncytial virus)
# T1 chain 1: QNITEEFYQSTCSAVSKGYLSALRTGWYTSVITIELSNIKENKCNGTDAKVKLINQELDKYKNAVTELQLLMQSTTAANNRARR
# T1 chain 2: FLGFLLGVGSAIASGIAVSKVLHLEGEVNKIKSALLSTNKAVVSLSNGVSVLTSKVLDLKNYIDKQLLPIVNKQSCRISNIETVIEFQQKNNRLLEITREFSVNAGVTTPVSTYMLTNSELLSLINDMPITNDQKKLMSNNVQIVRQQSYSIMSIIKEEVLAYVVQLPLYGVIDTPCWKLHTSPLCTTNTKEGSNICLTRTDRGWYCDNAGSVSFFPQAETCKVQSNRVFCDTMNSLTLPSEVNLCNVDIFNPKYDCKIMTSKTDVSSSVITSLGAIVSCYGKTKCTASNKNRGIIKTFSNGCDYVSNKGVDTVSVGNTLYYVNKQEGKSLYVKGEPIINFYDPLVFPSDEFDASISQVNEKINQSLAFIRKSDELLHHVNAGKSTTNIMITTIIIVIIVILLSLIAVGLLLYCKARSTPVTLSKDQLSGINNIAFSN
# B1: A12a6 IgG (antibody, V domains shown)
# VH: QVTLRESGPALVKPTQTLTLTCTFSGFSLSTAGMSVGWIRQPPGKALEWLADIWWDGKKDYNPSLKDRLTISKDTSKNQVVLKVTNMDPADTATYYCARDMIFNFYFDVWGQGTTVTVSS
# VL: DIQMTQSPSTLSASVGDRVTITCSASSRVGYMHWYQQKPGKAPKLLIYDTFKLSSGVPSRFSGSGSGTEFTLTISSLQPDDFATYYCFQGSGYPFTFGGGTKVEIKR
# B2: P11d4 IgG (antibody, V domains shown)
# VH: B1 VH with A32P, D60H, F105W
# VL: B1 VL with A25P, F51M, K52R, S54A
# B3: AFFF(1) IgG (antibody, V domains shown)
# VH: B1 VH with G57D, D67S, D100S, F103T
# VL: B1 VL with R28S, S54A, G92F
# B4: A4B4L1FR-S28R (MEDI-524) (antibody, human IgG1, kappa)
# heavy: not shown
# light: DIQMTQSPSTLSASVGDRVTITCSASSRVGYMHWYQQKPGKAPKLLIYDTSKLASGVPSRFSGSGSGTEFTLTISSLQPDDFATYYCFQGSGYPFTFGGGTKVEIKRTVAAPSVFIFPPSDEQLKSGTASVVCLLNNFYPREAKVQWKVDNALQSGNSQESVTEQDSKDSTYSLSSTLTLSKADYEKHKVYACEVTHQGLSSPVTKSFNRGEC
# B5: A4B4 IgG (antibody, V domains shown)
# VH: B1 VH with G57D, D60H
# VL: B1 VL with K52F, S54D
# B6: A1e9 Fab (Fab, V domains shown)
# VH: B1 VH with D60H, F105W
# VL: DIQMTQSPSTLSASVGDRVTITCSLSSRVGYMHWYQQKPGKAPKLLIYDTFKLSSGVPSRFSGSGSGTEFTLTISSLQPDDFATYYCFQGSGYPFTFGGGTKVEIK
# notes: also called Ale9
# B7: A13a11 Fab (Fab, V domains shown)
# VH: B1 VH with G57D, D60H, F105W
# VL: B6 VL with L25P, F51Y, K52R, L53H
# B8: P12f2 Fab (Fab, V domains shown)
# VH: B1 VH with A32P, G57D, D60H
# VL: B6 VL with K52Y
# B9: A12a6 Fab (Fab, V domains shown)
# VH: B1 VH
# VL: B6 VL with L25A
# B10: A13c4 Fab (Fab, V domains shown)
# VH: B1 VH with D60S
# VL: B6 VL with F51M, K52Y, L53Q
# B11: P11d4 Fab (Fab, V domains shown)
# VH: B1 VH with A32P, D60H, F105W
# VL: B6 VL with L25P, F51M, K52R, S54A
# Molecular target: Bac-F (respiratory syncytial virus)
# Assay: SPR (BIAcore), mAb vs Bac-F (1:1)
Binder,Kd,fold in parentheses (palivizumab = 1)
B1,0.04 nM,98 fold
B2,0.62 nM,6 fold

# Molecular target: T2, F protein of RSV (Long strain) (RSV (Long strain), UniProt P12568 26-574)
# Assay: cell-based or functional assay
row,Binder,"Microneutralization IC50, IgG"
1,B3,0.306 µg/ml and 2.04 nM

# Molecular target: T2, F protein of RSV (Long strain)
# Assay: cell-based or functional assay
# Remark: another data set of the same source
row,Binder,"RSV microneutralization, average IC50"
1,B4,0.018 µg/mL

# Molecular target: T2, F protein of RSV (Long strain)
# Assay: cell-based or functional assay
# Remark: another data set of the same source
Binder,"Microneutralization IC50, IgG","Microneutralization IC50, Fab"
B1,0.0357 µg/ml and 0.24 nM,
B5,0.104 µg/ml and 0.069 nM,
B6,,0.157 µg/ml and 3.14 nM
B3,2.04 nM and 0.306 µg/ml,
B7,,0.012 µg/ml and 2.4 nM
B8,,0.0407 µg/ml and 0.81 nM
B9,,0.0287 µg/ml and 0.57 nM
B10,,0.0264 µg/ml and 0.53 nM
B2,0.0217 µg/ml and 0.14 nM,

# Molecular target: T2, F protein of RSV (Long strain)
# Assay: cell-based or functional assay
# Remark: another data set of the same source
row,Binder,IC50
1,B6,2.5 nM
2,B7,2.04 nM
3,B8,0.65 nM
4,B9,0.62 nM
5,B10,0.52 nM
6,B11,> 20 nM

# Molecular target: T3, Cynomolgus Monkey FcRn (Cynomolgus Monkey, UniProt Q8SPV9 24-290; Q8SPW0 21-119)
# T3 construct: also called Cynomolgus FcRn
# Assay: SPR (BIAcore 3000), FcRn over immobilised IgG, pH 6.0, one-site fit
# Procedure: (§1) Human and Cynomolgus Monkey FcRn were buffer-exchanged against 50 mM Phosphate Buffered Saline (PBS) pH 6.0 or 7.4 containing 0.05% Tween 20. Dilutions were made in the same buffers. […] FcRn was also flowed over an uncoated cell and the sensorgrams from these blank runs subtracted from those obtained with IgG-coupled chips. Runs were analyzed using the software BIAevaluation 3.1 (Pharmacia). Dissociation constants (Kds) were determined by fitting the binding isotherms to a one-site binding model using GraphPad Prism (GraphPad Software, Inc., CA). Errors were estimated as the mean standard deviation for at least 2 independent determinations.
row,Binder,Kd
1,B4,1200 nM

# Molecular target: T4, human FcRn (human)
# T4 construct: also called recombinant human FcRn
# Assay: as above
# Procedure: as §1
# T4 sequence (chain, as listed by the source limits assumed, chain 1 of 2): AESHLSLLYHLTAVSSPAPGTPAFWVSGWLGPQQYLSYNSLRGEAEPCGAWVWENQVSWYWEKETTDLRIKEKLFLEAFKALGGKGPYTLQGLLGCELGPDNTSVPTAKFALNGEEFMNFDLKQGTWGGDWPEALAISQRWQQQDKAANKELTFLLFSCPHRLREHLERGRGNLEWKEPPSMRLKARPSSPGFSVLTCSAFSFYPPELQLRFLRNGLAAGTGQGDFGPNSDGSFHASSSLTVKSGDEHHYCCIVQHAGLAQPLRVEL
# T4 sequence (P61769 21-119 limits assumed, chain 2 of 2): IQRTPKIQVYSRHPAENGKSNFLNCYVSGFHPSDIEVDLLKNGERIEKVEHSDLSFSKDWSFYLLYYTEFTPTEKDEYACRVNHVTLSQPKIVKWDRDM
row,Binder,Kd
1,B4,2250 nM

# Molecular target: T1, RSV F glycoprotein (NUF4)
# Assay: SPR (BIAcore), mAb vs NUF4 (1:1)
Binder,Kd,fold in parentheses (palivizumab = 1),koff,kon
B1,0.73 nM,12 fold,0.000291 s⁻¹,400000 M⁻¹ s⁻¹
B5,0.57 nM,15 fold,0.000282 s⁻¹,496000 M⁻¹ s⁻¹
B2,0.85 nM,10 fold,0.000766 s⁻¹,904000 M⁻¹ s⁻¹

# Molecular target: T1, RSV F glycoprotein (NUF4)
# Assay: SPR (BIAcore), mAb vs NUF4 (2:1)
Binder,Kd,fold in parentheses (palivizumab = 1),koff,kon
B1,1.87 nM,167 fold,0.000408 s⁻¹,218000 M⁻¹ s⁻¹
B5,2 nM,156 fold,0.000401 s⁻¹,203000 M⁻¹ s⁻¹
B2,8.55 nM,36 fold,0.00313 s⁻¹,366000 M⁻¹ s⁻¹

# Molecular target: T5, recombinant C-terminally truncated RSV (A2 strain) F protein (RSV (A2 strain), UniProt P03420 26-524)
# T5 construct: extracellular domain; also called truncated F protein; extracellular domain of the F protein from RSV A2
# Assay: SPR (BIAcore), IgG over immobilised F
Binder,Kd,koff,kon
B1,0.036 nM,1.65e-05 s⁻¹,460000 M⁻¹ s⁻¹
B5,0.027 nM,1.51e-05 s⁻¹,553000 M⁻¹ s⁻¹
B3,≤ 0.039 nM,≤ 5e-06 s⁻¹,127000 M⁻¹ s⁻¹
B2,0.62 nM,0.000289 s⁻¹,466000 M⁻¹ s⁻¹

# Molecular target: RSV F protein (purified) (respiratory syncytial virus)
# Assay: SPR (BIAcore), F protein immobilised
Binder,koff,kon
B6,0.000453 s⁻¹,790000 M⁻¹ s⁻¹
B3,0.000274 s⁻¹ and 0.000266 s⁻¹ and 0.000206 s⁻¹,108000 M⁻¹ s⁻¹ and 96000 M⁻¹ s⁻¹ and 124000 M⁻¹ s⁻¹
B7,0.00025 s⁻¹,735000 M⁻¹ s⁻¹
B8,0.000282 s⁻¹,663000 M⁻¹ s⁻¹
B9,0.00023 s⁻¹,743000 M⁻¹ s⁻¹
B10,0.00028 s⁻¹,781000 M⁻¹ s⁻¹ and 735000 M⁻¹ s⁻¹
B11,0.000717 s⁻¹,570000 M⁻¹ s⁻¹ and 572000 M⁻¹ s⁻¹

# Molecular target: T5, recombinant C-terminally truncated RSV …
# Assay: SPR (BIAcore), IgG over immobilised F
# Remark: another data set of the same source
Binder,fold improvement in affinity over palivizumab,fold improvement in koff over palivizumab,fold improvement in kon over palivizumab
B5,125 fold,28 fold,4 fold
B2,,,4 fold

# Molecular target: T5, recombinant C-terminally truncated RSV …
# Assay: SPR (BIAcore)
row,Binder,fold improvement in koff upon IgG conversion (against its Fab)
1,B1,13 fold

# Molecular target: T1, RSV F glycoprotein (NUF4)
# Assay: ITC, NUF4 titrated into antibody, 35 C
# Procedure: The binding thermodynamics of the antibodies were determined from ITC measurements using a Microcal, Inc. VP Titration Calorimeter. The VP titration calorimeter consists of a matched pair of sample and reference vessels (1.409 ml) enclosed in an adiabatic enclosure and a rotating stirrer-syringe for titrating ligand solutions into the sample vessel. The ITC measurements were performed at 25° C. and 35° C. The sample vessel contained the antibody in the phosphate buffer while the reference vessel contained just the buffer solution. The phosphate buffer solution was saline 67 mM PO₄ at pH 7.4 from HyClone, Inc. Five or ten μl aliquots of the 0.05 to 0.1 mM NUF4 solution were titrated 3 to 4 minutes apart into the antibody sample solution until the binding was saturated as evident by the lack of a heat exchange signal. […] This was attributed to a heat of dilution of the NUF4 titrant and was subtracted from the titrant heats obtained during the titration prior to analysis of the data.
# A non-linear, least square minimization software program from Microcal, Inc., Origin 5.0, was used to fit the incremental heat of the ith titration (ΔQ (i)) of the total heat, Qₜ, to the total titrant concentration, Xₜ, according to the following equations (I),
Binder,Ka,Kd,ΔHb
B5,2.69e+08 M⁻¹,~3.7 nM,22.2 kcal/mol

# Molecular target: T5, recombinant C-terminally truncated RSV …
# Assay: SPR (BIAcore), Fab over immobilised F
Binder,Kd,koff,kon
B6,0.216 nM,0.000113 s⁻¹,523000 M⁻¹ s⁻¹
B7,0.337 nM,0.000229 s⁻¹,680000 M⁻¹ s⁻¹
B8,0.135 nM,7.2e-05 s⁻¹,535000 M⁻¹ s⁻¹
B9,0.422 nM,0.000219 s⁻¹,519000 M⁻¹ s⁻¹
B10,0.172 nM,0.000112 s⁻¹,650000 M⁻¹ s⁻¹
B11,0.682 nM,0.000389 s⁻¹,570000 M⁻¹ s⁻¹

# Molecular target: T2, F protein of RSV (Long strain)
# Assay: cell-based or functional assay
# Remark: another data set of the same source
Binder,Mean IC50 (Control),Mean IC50 (Curve)
B1,0.0354 µg/mL,0.0357 µg/mL
B5,0.0154 µg/mL,0.0171 µg/mL
B6,0.125 µg/mL,0.157 µg/mL
B7,0.102 µg/mL,0.12 µg/mL
B8,0.0326 µg/mL,0.0407 µg/mL
B9,0.031 µg/mL,0.0287 µg/mL
B10,0.0258 µg/mL,0.0264 µg/mL
B2,0.0289 µg/mL,0.0217 µg/mL
B11,> 1 µg/mL,> 1 µg/mL

# Molecular target: T5, recombinant C-terminally truncated RSV …
# Assay: SPR (BIAcore), IgG over immobilised F
# Remark: another data set of the same source
Binder,koff,kon
B3,≤ 5e-06 s⁻¹,127000 M⁻¹ s⁻¹
